Common to all, as to experiment: holdup assay
Common to all, as to design: key: below the threshold = too weak to quantify, mostly under pKd 3.1 to 4

Test [1] has as its target T1, APBA2_2, Q99767.
T1 sequence (Q99767 654-744, limits assumed, looked up): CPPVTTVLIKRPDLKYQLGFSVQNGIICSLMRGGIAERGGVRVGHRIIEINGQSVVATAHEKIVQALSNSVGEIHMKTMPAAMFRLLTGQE

Test [2] deals with T2, MPDZ_11, O75970.
T2 sequence (O75970 1720-1817, limits assumed, looked up): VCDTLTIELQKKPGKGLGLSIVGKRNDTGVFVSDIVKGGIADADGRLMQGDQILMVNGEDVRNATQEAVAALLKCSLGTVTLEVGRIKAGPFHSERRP
To be noted: plain residues with an end cap or a label only (N-terminal biotin on a linker: ttds).

Test [3] has as its target T3, PDZD2_5, O15018.
T3 sequence (O15018 2617-2716, limits assumed, looked up): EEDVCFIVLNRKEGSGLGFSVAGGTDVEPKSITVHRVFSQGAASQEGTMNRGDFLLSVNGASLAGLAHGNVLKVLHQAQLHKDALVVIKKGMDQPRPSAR
To be noted: plain residues with an end cap or a label only (N-terminal biotin on a linker: ttds).

For test [4], the target named is T4, PREX2_2, Q70Z35.
T4 sequence (Q70Z35 672-764, limits assumed, looked up): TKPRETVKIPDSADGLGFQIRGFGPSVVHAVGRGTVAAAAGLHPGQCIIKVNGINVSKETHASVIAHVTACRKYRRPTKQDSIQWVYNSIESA
The conditions noted are these: plain residues with an end cap or a label only (N-terminal biotin on a linker: ttds).

Test [5] concerns the target SCRIB_4, Q14160. To be noted: plain residues with an end cap or a label only (N-terminal biotin on a linker: ttds).
Test [6] has as its target PDZD9, Q8IXQ8. To be noted: plain residues with an end cap or a label only (N-terminal biotin on a linker: ttds).
Test [7] concerns the target T5, NHERF3_2, Q5T2W1.
T5 sequence (Q5T2W1 129-225, limits assumed, looked up): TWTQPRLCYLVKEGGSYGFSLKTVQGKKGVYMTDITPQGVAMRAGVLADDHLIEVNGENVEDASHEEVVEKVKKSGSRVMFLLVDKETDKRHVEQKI
To be noted: plain residues with an end cap or a label only (N-terminal biotin on a linker: ttds).

Test [8] deals with MAGI3_5, Q5TCQ9. The conditions noted are these: plain residues with an end cap or a label only (N-terminal biotin on a linker: ttds).
Chain of MAGI3_5, Q5TCQ9 (Q5TCQ9 847-941): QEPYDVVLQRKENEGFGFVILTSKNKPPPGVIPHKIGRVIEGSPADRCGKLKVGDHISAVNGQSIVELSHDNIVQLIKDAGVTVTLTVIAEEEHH
Test [9] deals with T6, SHANK3, Q9BYB0.
T6 sequence (Q9BYB0 641-750, limits assumed, looked up): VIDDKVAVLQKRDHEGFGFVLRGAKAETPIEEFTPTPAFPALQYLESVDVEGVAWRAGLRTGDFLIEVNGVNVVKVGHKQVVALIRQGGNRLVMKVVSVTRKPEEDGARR
The conditions noted are these: plain residues with an end cap or a label only (N-terminal biotin on a linker: ttds).

Test [10] addresses CNKSR3, Q6P9H4. To be noted: plain residues with an end cap or a label only (N-terminal biotin on a linker: ttds).
In test [11] the target is T7, SHROOM2, Q13796.
T7 sequence (Q13796 21-118, limits assumed, looked up): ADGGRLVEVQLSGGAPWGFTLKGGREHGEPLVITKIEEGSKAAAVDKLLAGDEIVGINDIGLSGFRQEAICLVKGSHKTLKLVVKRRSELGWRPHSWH
The conditions noted are these: plain residues with an end cap or a label only (N-terminal biotin on a linker: ttds).

The target of test [12] is T8, MPDZ_6, O75970.
T8 sequence (O75970 1003-1099, limits assumed, looked up): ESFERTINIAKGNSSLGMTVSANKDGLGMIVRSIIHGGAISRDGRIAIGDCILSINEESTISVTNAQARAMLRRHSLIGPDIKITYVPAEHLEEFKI
To be noted: plain residues with an end cap or a label only (N-terminal biotin on a linker: ttds).

For test [13], the target named is PARD3B_2, Q8TEW8. The conditions noted are these: plain residues with an end cap or a label only (N-terminal biotin on a linker: ttds).
Chain of PARD3B_2, Q8TEW8 (Q8TEW8 376-471): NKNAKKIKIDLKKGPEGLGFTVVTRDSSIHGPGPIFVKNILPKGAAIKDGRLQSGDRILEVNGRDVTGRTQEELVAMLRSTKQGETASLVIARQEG
The target of test [14] is PARD3_1, Q8TEW0. The conditions noted are these: plain residues with an end cap or a label only (N-terminal biotin on a linker: ttds).
Chain of PARD3_1, Q8TEW0 (Q8TEW0 264-372): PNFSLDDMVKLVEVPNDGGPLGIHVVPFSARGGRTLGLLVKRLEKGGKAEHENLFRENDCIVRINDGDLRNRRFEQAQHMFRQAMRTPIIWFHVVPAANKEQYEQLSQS
Test [15] addresses T9, MPDZ_3, O75970.
T9 sequence (O75970 372-473, limits assumed, looked up): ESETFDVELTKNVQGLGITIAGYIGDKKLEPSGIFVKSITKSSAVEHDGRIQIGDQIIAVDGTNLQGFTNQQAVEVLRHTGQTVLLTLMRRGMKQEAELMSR
To be noted: plain residues with an end cap or a label only (N-terminal biotin on a linker: ttds).

For test [16], the target named is MAGI1_5, Q96QZ7. To be noted: plain residues with an end cap or a label only (N-terminal biotin on a linker: ttds).
Chain of MAGI1_5, Q96QZ7 (Q96QZ7 986-1098): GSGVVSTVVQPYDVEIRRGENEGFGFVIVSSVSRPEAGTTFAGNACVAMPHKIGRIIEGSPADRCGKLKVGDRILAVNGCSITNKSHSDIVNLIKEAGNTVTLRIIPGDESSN
Test [17] concerns the target MAGI1_6, Q96QZ7. The conditions noted are these: plain residues with an end cap or a label only (N-terminal biotin on a linker: ttds).
Test [18] concerns the target T10, USH1C_1, Q9Y6N9.
T10 sequence (Q9Y6N9 82-179, limits assumed, looked up): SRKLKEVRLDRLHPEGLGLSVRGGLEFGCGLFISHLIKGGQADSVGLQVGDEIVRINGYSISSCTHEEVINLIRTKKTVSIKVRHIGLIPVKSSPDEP
The conditions noted are these: plain residues with an end cap or a label only (N-terminal biotin on a linker: ttds).

Test [19] has as its target T11, SIPA1L3, O60292.
T11 sequence (O60292 961-1052, limits assumed, looked up): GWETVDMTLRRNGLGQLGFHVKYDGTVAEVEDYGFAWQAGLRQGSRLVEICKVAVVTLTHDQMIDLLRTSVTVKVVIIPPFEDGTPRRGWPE
To be noted: plain residues with an end cap or a label only (N-terminal biotin on a linker: ttds).

Setting [20] is: plain residues with an end cap or a label only (N-terminal biotin on a linker: ahx).
The mark [21] stands for this setting: plain residues with an end cap or a label only (N-terminal biotin on a linker: ttds).
Where [22] appears, read: plain residues with an end cap or a label only (N-terminal biotin on a linker: ado-ado).

Chain of PDZD9, Q8IXQ8 (Q8IXQ8 23-120): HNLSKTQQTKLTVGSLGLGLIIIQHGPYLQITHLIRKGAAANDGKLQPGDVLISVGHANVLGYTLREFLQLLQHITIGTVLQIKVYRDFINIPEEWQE
Chain of MAGI1_6, Q96QZ7 (Q96QZ7 1146-1238): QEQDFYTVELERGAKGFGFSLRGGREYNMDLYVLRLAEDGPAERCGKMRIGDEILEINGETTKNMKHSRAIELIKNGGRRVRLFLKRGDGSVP
Chain of SCRIB_4, Q14160 (Q14160 1095-1204): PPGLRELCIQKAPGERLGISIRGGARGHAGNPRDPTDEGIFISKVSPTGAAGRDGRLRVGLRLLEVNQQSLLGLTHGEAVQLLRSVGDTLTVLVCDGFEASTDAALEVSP
Chain of CNKSR3, Q6P9H4 (Q6P9H4 203-303): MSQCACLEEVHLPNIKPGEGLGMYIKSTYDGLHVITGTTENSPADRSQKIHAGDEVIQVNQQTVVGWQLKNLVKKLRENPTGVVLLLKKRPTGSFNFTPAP

Take SAPATLSSRA [PDLIM2, Q96JY6]: the negative logarithm of the Kd (pKd) – broadly, the Kd on a negative log10 scale, so that one unit is a factor of ten – in [1] (setting [20]) is reported as “below the threshold”.

In the case of QRPYRRESEI [KCNJ12, Q14500], in test [1] (setting [21]), the pKd result is listed as “below the threshold”.

Regarding SNAKAVETDV [KCNA4, P22459], the pKd result in [1] (plain residues with an end cap or a label only (N-terminal biotin on a linker: ado-ado, ttds)) is “below the threshold”.

Regarding DLDEEEDTHL [PODXL, O00592], in [1] (setting [21]), the pKd entry is reported as “below the threshold”.

Turning to PDSYHRRDFW [U2AF2, P26368], in test [1] (setting [22]), the pKd entry was “below the threshold”.

DAAHHDESNC [FMNL3, Q8IVF7]: in test [1] (setting [22]), the pKd result was “below the threshold”.

Take KDECVIATEV [DLL1, O00548]: the pKd result in test [1] (setting [20]) is recorded as “below the threshold”.

As to AKPQPVDSWV [ARVCF, O00192], the pKd entry in test [1] (setting [20]) is recorded as “below the threshold”.

For FVETQHQTQV [FAT3, Q8TDW7], in test [1] (setting [21]), the pKd entry is on record as “below the threshold”.

With PKMKLNETSF [SHKBP1, Q8TBC3], the pKd result in [1] (setting [20]) is recorded as “below the threshold”.

For the molecule PFRSRSPSEV [GPR6, P46095], the pKd entry in [1] (setting [21]) is “below the threshold”.

Take KQVVPFSSSV [GDA, Q9Y2T3]: in test [1] (setting [21]), the pKd result is “below the threshold”.

Turning to SKKNELFSNL [NHERF1, O14745], the pKd result in test [1] (setting [20]) is “below the threshold”.

Regarding ADENEQVSAV [RAPGEF6, Q8TEU7], the pKd result in test [1] (setting [20]) is recorded as “below the threshold”.

As to ELKAEDEVQI [DCHS2, Q6V1P9], the negative logarithm of the Kd (pKd) result in test [1] (setting [22]) is reported as “below the threshold”.

On to GARVSKETPL [MAPK12, P53778], for which the pKd entry in test [1] (setting [21]) is given as “below the threshold”.

On to IGHEDLETAV [DGKI, O75912], for which the pKd result in test [1] (setting [22]) is on record as “below the threshold”.

Regarding EKPIDSETKM [SLC1A3, P43003], the pKd entry in [1] (setting [22]) is “below the threshold”.

On to SQDPKKPSRV [CBY2, Q8NA61], for which the pKd entry in test [1] (setting [22]) is recorded as “below the threshold”.

As to SGGKRKETLV [NET1, Q7Z628], the pKd was 3.72 in test [2]; “below the threshold” in [3]; 3.79 in test [4]; “below the threshold” in test [5]; “below the threshold” in test [6]; “below the threshold” in [7]. Further, the pKd in test [8] is 3.72; in [9], “below the threshold”; in test [10], “below the threshold”; in [1] (setting [21]) it was “below the threshold”; in test [11], “below the threshold”; in test [12], “below the threshold”. The pKd result in [13] is “below the threshold”; in test [14], “below the threshold”; in [15] it was “below the threshold”; in test [16], 4.72; in test [17], “below the threshold”; in test [18] it was “below the threshold”. The pKd result in test [19] is “below the threshold”.

Consider VNENQKEYFF [CNTNAP4, Q9C0A0], for which the pKd result in test [1] (setting [20]) is given as “below the threshold”.

On to HSATSVHTSV [MTMR1, Q13613], for which the pKd entry in [1] (setting [20]) is given as “below the threshold”.

For YNSFLSVTTV [PDZRN3, Q9UPQ7], the negative-log Kd (pKd) result in test [1] (setting [20]) is “below the threshold”.

For NPDALPETLV [ARHGAP6, O43182], the pKd entry in [1] (setting [21]) is “below the threshold”.

Consider GRLLGLETNV [ARHGEF26, Q96DR7], for which the pKd result in [1] (setting [21]) is “below the threshold”.

On to KEYDDELTFF [USH1C, Q9Y6N9], for which, in test [1] (setting [20]), the pKd result is given as “below the threshold”.
